Assay results from the supplement of paper PMC10567573.

B1: USP39 (parent)
chain: FQGSMRIFTKKLPHPDLPAEEKEQ
B2: FBXO3 (parent)
chain: HDPLWRRHCKKYWLISEEEKTQKN

Variants of: B1
Experiment: protein stability index of a GFP-peptide fusion (GPS, HEK-293T) (PSI 1-6); higher = more stable
Settings: c terminus: a fixed tail appended
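Further: lentivirally expressed fusions sorted by FACS into six bins by GFP to DsRed ratio, PSI derived from sequencing read proportions per bin multiplied by bin number.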

Protein stability index of substitutions, site by site:
Q24: T 2.1, R 2.15, N 2.12, K 2.37, L 1.91, W 1.33, Y 1.62, H 2.05, P 1.83, S 2.14, I 2.13, V 1.52, M 2.05

Variants of: B2
Experiment: as above
Settings: c terminus: a fixed tail appended

Protein stability index of substitutions, site by site:
C9: G 4.08, Q 3.9, A 3.57, W 3.16, D 4.83, K 3.59, Y 3.31, M 2.55, F 2.65, V 3.8, N 4.14, S 3.27, I 3.58, E 4.37, P 4.15, T 3.7, L 2.93, R 3.68, H 3.42
E17: N 2.98, G 3, S 3.26, L 2.47, I 2.31, K 3.31, A 3.41, T 3.1, F 2.56, Q 2.98, P 3.52, R 3, C 2.64, H 3.05, V 2.23, M 2.22, D 3.48
R7: F 2.21, N 3.46, S 3.46, T 3.53, I 3.14, K 3.22, V 2.71, Y 2, G 4.02, Q 3.54, L 3.14, C 2.95, H 3.02, W 2.68, M 2.86, A 3.39, D 3.8, P 4.42, E 3.31
D2: I 2.25, F 2.33, A 2.58, C 2.26, V 1.97, Q 2.91, Y 2.56, H 2.18, G 1.62, S 1.81, M 2.63, K 2.58, P 3.13, L 2.24, N 2.78, R 2.86, E 2.62, W 1.97, T 1.87
R6: Q 3.54, S 3.69, E 4.24, C 3.35, F 2.84, N 3.85, G 3.6, L 2.89, M 3.58, V 2.98, T 3.43, A 2.99, I 2.58, H 3.51, P 1.82, W 2.46, D 4.04, Y 2.7, K 3.32
W5: C 3.77, A 4.33, S 4.08, T 4.76, N 3.89, L 4.35, V 3.81, H 3.94, I 3.99, P 3.78, R 3.42, D 4.18, G 3.96, K 3.62, Y 4.71, M 4.39, F 4.56, E 4.07, Q 4.25
K10: G 3.41, S 3.32, W 2.95, Y 2.52, V 2.57, C 2.27, Q 3.28, R 3.06, D 4.05, A 2.91, I 2.02, E 3.81, T 2.71, L 2.34, F 2.77, N 3.51, M 2.28, P 4.06, H 3.27
H8: R 3, S 2.73, C 2.03, M 2.23, G 3.31, Q 3.72, W 1.88, F 1.73, D 4.29, P 3.4, I 1.63, T 2.79, N 3.15, Y 2.2, V 2.56, K 2.89, E 3.63, L 1.88, A 2.63
Y12: W 3.12, P 3.78, M 2.98, F 3.22, K 3.89, R 3.59, N 3.58, I 3.48, L 3.74, S 3.91, Q 3.61, T 4.13, H 3.72, G 3.74, V 3.83, E 4.48, D 4.63, A 3.44, C 3.4
K11: G 2.7, D 3.12, W 2.41, Q 3.45, P 2.67, T 2.71, M 2.44, L 1.93, A 3.6, S 2.79, Y 2.31, E 3.59, H 3.26, C 2.63, N 2.65, V 2.28, R 3.35, I 2.27, F 2.4
I15: E 3.88, D 3.69, Y 3.21, S 3.62, H 2.72, R 4.68, T 3.61, G 3.69, P 3.68, C 3.73, V 3.85, A 3.38, L 3.44, N 3.67, Q 3.68, K 3.47, M 3.16, F 3.38, W 3.19
S16: A 3.21, G 2.95, Q 2.99, M 2.99, I 2.4, W 2.52, V 2.73, K 3.21, N 3.5, R 3.27, F 2.46, Y 2.72, D 3.84, E 3.8, P 3.77, C 2.99, L 2.72, H 3.09, T 3.51
L4: D 4.6, K 2.95, F 3.52, V 3.32, W 3.63, C 3.51, M 3.26, Q 3.88, A 2.92, H 3.45, E 2.9, I 2.93, R 2.33, P 3.73, G 3.75, T 4.35, N 3.52, Y 3.45, S 3.87
W13: S 3.97, E 4.52, V 3.85, N 4.37, M 3.76, I 3.91, F 3.85, H 4.21, R 3.46, T 4.22, D 4.38, K 4.65, Y 3.19, G 4.26, P 4.21, L 3.84, C 3.67, A 4.04, Q 4.28
P3: T 3.84, I 3.08, R 2.91, M 3.33, W 2.44, A 3.58, V 3.84, L 3.12, C 3.02, Y 2.75, K 3.03, H 2.97, Q 3.5, E 3.45, G 3.1, N 3.49, D 3.33, S 3.38, F 2.41
L14: A 3.57, P 4.11, G 3.79, I 2.99, K 3.53, R 3.3, T 3.65, C 3.3, Y 3.56, M 3.27, D 3.98, W 3.31, E 3.77, N 4.4, V 3.27, Q 3.58, F 3, H 3.49, S 3.88
H1: M 3.32, I 2.06, G 3.29, Y 2.12, K 3.21, P 3.74, W 2.15, D 4.12, F 2.34, S 3.62, R 2.8, L 3.85, V 3.38, A 3.78, C 3.53, E 3.84, N 3.38, Q 3.13, T 3.66
